From US20250060376A1 (PLASMARKER BIOTECHNOLOGY, published 2025)

T1: fragment DIR-II (last 27 amino acids of the sequence encoded by the retained intron of DIR) (human)
T1 construct: also called target fragment DIR-II
T1 peptide: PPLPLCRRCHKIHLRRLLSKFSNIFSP


Legend:
[1] = biological target: T1, fragment DIR-II (last 27 amino acids of …); test: ELISA, DIR-II coated; mAb (1 mg/mL) diluted 1:6k
Protocol: (§1) The binding activity of the above antibodies IR-II-1 to IR-II-10 to fragments DIR-II was detected. The method specifically comprises:
(§2) The target fragment DIR-II was coated on a 96-well plate using a coating buffer and blocked with a blocking buffer. […] Then, a secondary antibody with horseradish peroxidase (1:5k) was added and incubated at 37° C. After washing three times, an appropriate volume of TMB substrate solution was added, and the resulting mixture was incubated at 37° C. for a certain period of time, and then placed under a microplate reader to record the absorbance value of the sample at a wavelength of 450 nm.

[2] = biological target: T1, fragment DIR-II (last 27 amino acids of …); test: ELISA, DIR-II coated; mAb (1 mg/mL) diluted 1:1458k
Protocol: as §1, §2

[3] = biological target: T1, fragment DIR-II (last 27 amino acids of …); test: ELISA, DIR-II coated; mAb (1 mg/mL) diluted 1:162k
Protocol: as §1, §2

[4] = biological target: T1, fragment DIR-II (last 27 amino acids of …); test: ELISA, DIR-II coated; mAb (1 mg/mL) diluted 1:2k
Protocol: as §1, §2

[5] = biological target: T1, fragment DIR-II (last 27 amino acids of …); test: ELISA, DIR-II coated; mAb (1 mg/mL) diluted 1:486k
Protocol: as §1, §2

[6] = biological target: T1, fragment DIR-II (last 27 amino acids of …); test: ELISA, DIR-II coated; mAb (1 mg/mL) diluted 1:54k
Protocol: as §1, §2

[7] = biological target: T1, fragment DIR-II (last 27 amino acids of …); test: ELISA, DIR-II coated; mAb (1 mg/mL) diluted 1:4374k
Protocol: as §1, §2

[8] = biological target: T1, fragment DIR-II (last 27 amino acids of …); test: ELISA, DIR-II coated; mAb (1 mg/mL) diluted 1:18k
Protocol: as §1, §2

Row | Binder | absorbance at 450 nm [1] | absorbance at 450 nm [2] | absorbance at 450 nm [3] | absorbance at 450 nm [4] | absorbance at 450 nm [5] | absorbance at 450 nm [6] | absorbance at 450 nm [7] | absorbance at 450 nm [8]
1 | DIR antibody IR-II-3 (antibody, V domains shown, Monoclonal antibody) VH: EVQLQQSGAELMKPGASVKISCKATGYTFSNYWIEWIKQRPGHGLEWIGEILPGSYYSTNYNEKFKGKATFTADTSSNTAYIQLSSLTSEDSAVYYCARSGMITTRGDYFAMDYWGQGTSVTVSS VL: not shown | 3.05 absorbance (450 nm) | 0.166 absorbance (450 nm) | 0.366 absorbance (450 nm) | 3.05 absorbance (450 nm) | 0.173 absorbance (450 nm) | 0.4 absorbance (450 nm) | 0.153 absorbance (450 nm) | 1.27 absorbance (450 nm)
2 | DIR antibody IR-II-2 (antibody, V domains shown, Monoclonal antibody) VH: EVQLQQSGAELMKPGASVKISCKATGYTFSSYWIEWVKQRPGHGLEWIGEILPGSGTTNYNEKFKGKATFTVDTSSNTAYMQLSSLTSEDSAVYYCARSGVITARGDYYAMDYWGQGTSVTVSS VL: DIVMTQSPASLAVSLGQRATISCKASQSVDYDGDSYMNWYQQKPGQPPKLLIYAASNLDSGIPARFSGSGSGTDFTLNIHPVEEEDAATYYCQQSNEDPRTFGGGTKLEIK | 1.62 absorbance (450 nm) | 0.0839 absorbance (450 nm) | 0.14 absorbance (450 nm) | 3.23 absorbance (450 nm) | 0.112 absorbance (450 nm) | 0.193 absorbance (450 nm) | 0.115 absorbance (450 nm) | 0.823 absorbance (450 nm)

The remaining lines, values ahead:

Row | absorbance at 450 nm [1] | absorbance at 450 nm [2] | absorbance at 450 nm [3] | absorbance at 450 nm [4] | absorbance at 450 nm [5] | absorbance at 450 nm [6] | absorbance at 450 nm [7] | absorbance at 450 nm [8] | Binder
3 | 1.31 absorbance (450 nm) | 0.0911 absorbance (450 nm) | 0.19 absorbance (450 nm) | 3.24 absorbance (450 nm) | 0.285 absorbance (450 nm) | 0.159 absorbance (450 nm) | 0.0868 absorbance (450 nm) | 0.387 absorbance (450 nm) | DIR antibody IR-II-5 (antibody, V domains shown, Monoclonal antibody) VH: QVQLQQSGAEVMKPGASVKISCKATGYTFSSYWIEWIKQRPGHGLEWIGEILPGGYNTNSNENFKGKATFTADTSSNTAYMQLSSLTSEDSAVYYCARSGMITTTGDYYAMDYWGQGTSVTVSS VL: DIELTQSPASLAVSLGQRATISCKASQSVDYDGESYMNWYQQKPGQPPKLLIYAASNLESGIPARFSGSGSGTDFTLNIHPVEEEDAATYYCQQSNDDPRTFGGGTKLEIK
4 | 2.98 absorbance (450 nm) | 0.103 absorbance (450 nm) | 0.164 absorbance (450 nm) | 3.09 absorbance (450 nm) | 0.121 absorbance (450 nm) | 0.35 absorbance (450 nm) | 0.0867 absorbance (450 nm) | 1.16 absorbance (450 nm) | DIR antibody IR-II-7 (antibody, V domains shown, Monoclonal antibody) VH: QVQLQQSGAELMKPGASVKISCKATGYTFSNYWIEWIKQRPGHGLEWIGEILPGSYYSTNYNEKFKDKATFTADTSSNTAYIQLSSLTSEDSAVYYCARSGIITTRGDYFAMDYWGQGTSVTVSS VL: DIVLTQSPASLAVSLGQRATISCKASQSVDYDGDSYMNWYQQKPGQPPKLLMYAASNLESGIPARFSGSGSGTDFTLNIHPVEEEDAATYYCQQSNEDPRTFGGGTKLEIK
5 | 0.472 absorbance (450 nm) | 0.0501 absorbance (450 nm) | 0.0517 absorbance (450 nm) | 2.01 absorbance (450 nm) | 0.0517 absorbance (450 nm) | 0.0783 absorbance (450 nm) | 0.0427 absorbance (450 nm) | 0.142 absorbance (450 nm) | DIR antibody IR-II-10 (A2D10) (antibody, V domains shown, Monoclonal antibody) VH: EVQLQQSGPELVKPGASVKISCKTSGYTFTEYTMHWVKQSHGKSLEWIGGIYPHNGGTNYNQKFKGKATLTVDKSSSTAYMELRSLTSEDSAVYYCTEDLTFDYWGQGTTLTVSS VL: DIQMTQTTSSLSASLGDRVTISCSASQDISNYLNWYQQKPDGTVKLLIYYTSSLHSGVPSRFSGSGSGTDYSLTISNLEPEDIATYHCLQYSKLPFTFGSGTKLEIK
